Assay results: patent US20050042720A1, “Novel promiscuous G alpha protein mutants and their use” (7TM Pharma A/S, priority 2003, published 2005)
Changes are numbered by the printed parent chain. Names and notes keep the numbering of the source.

Tests used:
Format in all cases: cell-based
phospholipase Cβ [1] = experiment: PI-hydrolysis assay in COS7 cells cotransfected with receptor and mutant/chimeric Gαq subunits (Example 3)
Excerpt: Murine wild type Gαq was cloned from mouse brain by RT-PCR and inserted into the BamHI-NslI-sites of pcDNA1.1. All wild type and mutant Gα subunits contained an internal hemagglutinin epitope tag DVPDYA (Wedegaertner et al., 1993) replacing Gαqwt residues 125-130. To create the C-terminally modified Gαqi5 subunit, in which the last five aa of wt Gαq were replaced with the corresponding Gαi sequence, a 175-bp BglII-NslI fragment was replaced, in a two piece ligation, with a synthetic DNA fragment, containing the desired codon changes. Gαqs5/z5 were prepared in an analogous fashion. GαqG66x mutants were prepared with the Stratagene quick change mutagenesis kit according to the manufacturer's instructions. To generate GαqG66Xi5/s5/z5(X=D,V,N,K), a 175 bp BglII-NsiI fragment was removed from GαqG66X and replaced with the corresponding BglII-NsiI fragment of Gαqi5 and Gαqs5/z5, respectively. The correctness of all PCR-derived sequences was verified by sequencing in both directions. […]
(§1) 18-24 h after transfections cells were splitted into 35-mm dishes in culture medium supplemented with 3 μCi/ml [3H]myo-inositol (20 Ci/mmol; Amersham). […] Cells were then stimulated in the same buffer with the appropriate agonist ligands for 1 h (37° C.), and increases in intracellular inositolphosphate determined by anion exchange chromatography as described (Kostenis et al., 1997).

[2] = tested on: chemokine CXCR1 and dopamine D2 receptor; experiment: Calcium mobilization assay in COS7 cells cotransfected with receptor and Gα16 constructs; settings: CXCR1 (interleukin 8) and D2 ((−)quinpirole) receptors, FIG. 13
Procedure: 24 h after transfection, COS7 cells were split into 96 well plates at a density of ˜30,000 cells per well. 18-24 h later cells were loaded with a calcium sensitive dye (calcium assay kit from Molecular devices) for 1 h (37 C, 5% CO2) and then for 1 h at room temperature. Ligands were transferred to the cell plate from the sample plate using the Novostar's integrated pipette. To obtain the specific fluorescence response, baseline fluorescence counts before addition of ligands were subtracted from the peak of the calcium response Specific responses were used to plot the concentration response curve.
Murine Wild type Gα16 was cloned as described above. […] was prepared with the Stratagene quick change mutagenesis kit according to the manufacturers instructions. The correctness of all PCR-derived sequences was verified by sequencing in both directions.
COS7 cells were grown and transfected as described above.
24 h after transfection, COS7 cells were split into 96 well plates at a density of […] cells per well. 18-24 h later cells were loaded with a calcium sensitive dye (calcium assay kit from Molecular devices) for 1 h (37 C, 5% CO2) and then for 1 h at room temperature. […] To obtain the specific fluorescence response, baseline fluorescence counts before addition of ligands were subtracted from the peak of the calcium response. […]

phospholipase Cβ [3] = experiment: Basal IP formation in COS7 cells transfected with Gα subunit alone (constitutive activity); settings: no receptor, no ligand, FIG. 6
Procedure: Basal IP3 formation was determined in COS7 cells transiently transfected with vector DNA, Gαqwt, GαqG66D and the constitutively active Gα15Q212L mutant as described in detail in the Examples. Data represent mean values±SEM of 4 independent experiments performed in duplicate.
COS7 cells were grown in Dulbecco's modified Eagles medium supplemented with 10% (vol/vol) fetal calf serum, Penicillin-Streptomycin (10000 IU/ml-10000 μg/ml) and 2 mM L-Glutamin in a humidified 5% CO2 incubator. For transfections, 1×10^6 cells were seeded into 100-mm dishes. About 24 h later, cells were cotransfected with the indicated G protein and receptor constructs (1:1 ratio) by using the Fugene transfection reagent as per manufacturer's instructions.
as §1, with “split” for “splitted”, “35 mm” for “35-mm”, “Ci/mmol:” for “Ci/mmol;”, “45 min” for “1 h”, “1997)” for “1997).”
To test whether the mutant Gαq subunit differs from Gαq wt in its ability to signal to phospholipase Cβ, plasmids encoding the respective cDNAs were transiently transfected into COS7 cells and IP1 accumulation was measured.

B1: GαqG66Di5: Gαq combining G66D linker I mutation with C-terminal five amino acids of Gαi; SEQ ID No. 6 (protein, listed as Mus musculus)
chain: MTLESIMACCLSEEAKEARRINDEIERHVRRDKRDARRELKLLLLGTGESGKSTFIKQMRIIHGSXYSDEDKRGFTKLVYQNIFTAMQAMIRAMDTLKIPYKYEHNKAHAQLVREVDVEKVSAFENPYVDAIKSLWNDPGIQECYDRRREYQLSDSTKYYLNDLDRVADPSYLPTQQDVLRVRVPTTGIIEYPFDLQSVIFRMVDVGGQRSERRKWIHCFENVTSIMFLVALSEYDQVLVESDNENRMEESKALFRTIITYPWFQNSSVILFLNKKDLLEEKIMYSHLVDYFPEYDGPQRDAQAAREFILKMFVDLNPDSDKIIYSHFTCATDTENIRFVFAAVKDTILQLNLKDCGLF
modifications: (66)..(66) Xaa is selected from the group consisting of Asp, Val, Asn and Lys
- agonist-induced IP3 / PLCβ activity (phospholipase Cβ [1]; Gi/o coupled receptors CXCR2, CCR5, SSTR1, KOR, GPR7, HM74a, NPY4, M2, P2Y12, FIG. 11): robust IP3 increases exceeding those observed upon coexpression with the C-terminal or the G66D mutant alone

B2: GαqG66Ds5: Gαq combining G66D linker I mutation with C-terminal five amino acids of Gαs; SEQ ID No. 7 (protein, listed as Mus musculus)
chain: B1 chain with D355Q, C356Y, G357E, F359L
modifications: (66)..(66) Xaa is selected from the group consisting of Asp, Val, Asn and Lys
- response (stimulation of PLCβ) versus individual mutants (phospholipase Cβ [1]; coexpressed non-Gq-selective receptor, Gs-linked GLP1, GIP, DP, adrenergic β2 (FIG. 12)): robust response exceeding the response observed upon coexpression with the C-terminal or the GαwG66D mutant alone

B3: Gα16: Murine wild type Gα16 (protein, UniProt P30678 1-374, looked up)
Guanine nucleotide-binding …: MARSLTWGCCPWCLTEEEKTAARIDQEINRILLEQKKQEREELKLLLLGPGESGKSTFIKQMRIIHGVGYSEEDRRAFRLLIYQNIFVSMQAMIDAMDRLQIPFSRPDSKQHASLVMTQDPYKVSTFEKPYAVAMQYLWRDAGIRACYERRREFHLLDSAVYYLSHLERISEDSYIPTAQDVLRSRMPTTGINEYCFSVKKTKLRIVDVGGQRSERRKWIHCFENVIALIYLASLSEYDQCLEENDQENRMEESLALFSTILELPWFKSTSVILFLNKTDILEDKIHTSHLATYFPSFQGPRRDAEAAKSFILDMYARVYASCAEPQDGGRKGSRARRFFAHFTCATDTQSVRSVFKDVRDSVLARYLDEINLL
- agonist-induced intracellular calcium mobilization [2]: gain the ability to stimulate calcium mobilization

B4: Gα15Q212L: GTPase defective, constitutively active Gα15 mutant replacing Glutamine 212 by Leucine (protein, UniProt P30678 1-374, looked up, variant Q212L)
Guanine nucleotide-binding …: B3 Guanine nucleotide-binding … with Q212L
- basal IP1 accumulation / ability to activate PLCβ (constitutive activity) (phospholipase Cβ [3]): robust IP1 increase

B5: Gα16G69D: Gα16 with glycine 69 to aspartate mutation in linker I; SEQ ID No 5 (protein, listed as Homo sapiens)
chain: MARSLTWRCCPWCLTEDEKAAARVDQEINRILLEQKKQDRGELKLLLLGPGESGKSTFIKQMRIIHGAXYSEEERKGFRPLVYQNIFVSMRAMIEAMERLQIPFSRPESKHHASLVMSQDPYKVTTFEKRYAAAMQWLWRDAGIRACYERRREFHLLDSAVYYLSHLERITEEGYVPTAQDVLRSRMPTTGINEYCFSVQKTNLRIVDVGGQKSERKKWIHCFENVIALIYLASLSEYDQCLEENNQENRMKESLALFGTILELPWFKSTSVILFLNKTDILEEKIPTSHLATYFPSFQGPKQDAEAAKRFILDMYTRMYTGCVDGPEGSKKGARSRRLFSHYTCATDTQNIRKVFKDVRDSVLARYLDEINLL
modifications: (69)..(69) Xaa is selected from the group consisting of Asp, Val, Asn and Lys
- agonist-induced intracellular calcium mobilization [2]: significantly increased
